Test results published in the supplement of paper PMC10567573.

B1: ZNF232 (parent)
chain: HSGEKPFICKECGKAYGWCSELIR
B2: FCHO1 (parent)
chain: HLELTRKLQDLIKDVLRYGEEQLK

Variants of: B1
Assay: protein stability index of a GFP-peptide fusion (GPS, HEK-293T) (PSI 1-6); higher = more stable
Conditions: c terminus: a fixed tail appended
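Further: lentivirally expressed fusions sorted by FACS into six bins by GFP to DsRed ratio, PSI derived from sequencing read proportions per bin multiplied by bin number.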

First: HSGEKPFICKECGKAYGWCSELIP [R24P]
Second: HSGEKPFICKECGKAYGWCSELIQ [R24Q]
The protein stability index of the first is higher: 2.66 for the first, 2.44 for the second.

First: HSGEKPFICKECGKAYGWCSELIS [R24S]
Second: HSGEKPFICKECGKAYGWCSELIT [R24T]
The protein stability index of the first is lower: 2.23 for the first, 2.32 for the second.

Compared with HSGEKPFICKECGKAYGWCSELIV [R24V], HSGEKPFICKECGKAYGWCSELIW [R24W] is higher in protein stability index: 2.02 for the first, 2.09 for the second.

With HSGEKPFICKECGKAYGWCSELIY [R24Y] the protein stability index was 1.61.

Variants of: B2
Assay: as above
Conditions: c terminus: a fixed tail appended

First: DLELTRKLQDLIKDVLRYGEEQLK [H1D]
Second: ELELTRKLQDLIKDVLRYGEEQLK [H1E]
The protein stability index of the first is lower: 2.68 for the first, 2.81 for the second.

First: FLELTRKLQDLIKDVLRYGEEQLK [H1F]
Second: GLELTRKLQDLIKDVLRYGEEQLK [H1G]
The protein stability index of the first is lower: 1.99 for the first, 2.03 for the second.

Compared with ILELTRKLQDLIKDVLRYGEEQLK [H1I], KLELTRKLQDLIKDVLRYGEEQLK [H1K] is lower in protein stability index: 1.74 for the first, 1.46 for the second.

Going from LLELTRKLQDLIKDVLRYGEEQLK [H1L] to MLELTRKLQDLIKDVLRYGEEQLK [H1M], the protein stability index rises from 1.55 to 2.23.

Going from NLELTRKLQDLIKDVLRYGEEQLK [H1N] to PLELTRKLQDLIKDVLRYGEEQLK [H1P], the protein stability index falls from 3.04 to 1.79.

Going from QLELTRKLQDLIKDVLRYGEEQLK [H1Q] to RLELTRKLQDLIKDVLRYGEEQLK [H1R], the protein stability index rises from 2.8 to 5.3.

First: SLELTRKLQDLIKDVLRYGEEQLK [H1S]
Second: TLELTRKLQDLIKDVLRYGEEQLK [H1T]
The protein stability index of the first is higher: 2.96 for the first, 2.28 for the second.

Compared with VLELTRKLQDLIKDVLRYGEEQLK [H1V], WLELTRKLQDLIKDVLRYGEEQLK [H1W] is higher in protein stability index: 1.31 for the first, 1.9 for the second.

Compared with YLELTRKLQDLIKDVLRYGEEQLK [H1Y], HAELTRKLQDLIKDVLRYGEEQLK [L2A] is higher in protein stability index: 2.02 for the first, 2.42 for the second.

First: HCELTRKLQDLIKDVLRYGEEQLK [L2C]
Second: HDELTRKLQDLIKDVLRYGEEQLK [L2D]
The protein stability index of the first is higher: 3.33 for the first, 2.92 for the second.

First: HEELTRKLQDLIKDVLRYGEEQLK [L2E]
Second: HFELTRKLQDLIKDVLRYGEEQLK [L2F]
The protein stability index of the first is higher: 2.63 for the first, 1.95 for the second.

Compared with HGELTRKLQDLIKDVLRYGEEQLK [L2G], HHELTRKLQDLIKDVLRYGEEQLK [L2H] is lower in protein stability index: 3.28 for the first, 1.64 for the second.

Compared with HIELTRKLQDLIKDVLRYGEEQLK [L2I], HKELTRKLQDLIKDVLRYGEEQLK [L2K] is higher in protein stability index: 1.87 for the first, 2.13 for the second.

Going from HMELTRKLQDLIKDVLRYGEEQLK [L2M] to HNELTRKLQDLIKDVLRYGEEQLK [L2N], the protein stability index falls from 5.22 to 2.76.

Going from HQELTRKLQDLIKDVLRYGEEQLK [L2Q] to HRELTRKLQDLIKDVLRYGEEQLK [L2R], the protein stability index falls from 2.94 to 2.11.

Going from HTELTRKLQDLIKDVLRYGEEQLK [L2T] to HVELTRKLQDLIKDVLRYGEEQLK [L2V], the protein stability index rises from 2.88 to 3.29.

First: HWELTRKLQDLIKDVLRYGEEQLK [L2W]
Second: HYELTRKLQDLIKDVLRYGEEQLK [L2Y]
The protein stability index of the first is lower: 1.41 for the first, 2.04 for the second.

Compared with HLALTRKLQDLIKDVLRYGEEQLK [E3A], HLCLTRKLQDLIKDVLRYGEEQLK [E3C] is lower in protein stability index: 2.96 for the first, 2.31 for the second.

Compared with HLDLTRKLQDLIKDVLRYGEEQLK [E3D], HLFLTRKLQDLIKDVLRYGEEQLK [E3F] is lower in protein stability index: 2.84 for the first, 2.54 for the second.

First: HLHLTRKLQDLIKDVLRYGEEQLK [E3H]
Second: HLILTRKLQDLIKDVLRYGEEQLK [E3I]
The protein stability index of the first is higher: 3.08 for the first, 2.88 for the second.

Compared with HLKLTRKLQDLIKDVLRYGEEQLK [E3K], HLLLTRKLQDLIKDVLRYGEEQLK [E3L] is higher in protein stability index: 2.17 for the first, 2.7 for the second.

Going from HLMLTRKLQDLIKDVLRYGEEQLK [E3M] to HLNLTRKLQDLIKDVLRYGEEQLK [E3N], the protein stability index rises from 3.36 to 3.5.

Going from HLPLTRKLQDLIKDVLRYGEEQLK [E3P] to HLQLTRKLQDLIKDVLRYGEEQLK [E3Q], the protein stability index rises from 2.72 to 3.73.

First: HLRLTRKLQDLIKDVLRYGEEQLK [E3R]
Second: HLSLTRKLQDLIKDVLRYGEEQLK [E3S]
The protein stability index of the first is lower: 2.74 for the first, 3.71 for the second.

First: HLTLTRKLQDLIKDVLRYGEEQLK [E3T]
Second: HLVLTRKLQDLIKDVLRYGEEQLK [E3V]
The protein stability index of the first is higher: 3.33 for the first, 2.56 for the second.

Going from HLWLTRKLQDLIKDVLRYGEEQLK [E3W] to HLYLTRKLQDLIKDVLRYGEEQLK [E3Y], the protein stability index falls from 2.83 to 2.52.

First: HLECTRKLQDLIKDVLRYGEEQLK [L4C]
Second: HLEDTRKLQDLIKDVLRYGEEQLK [L4D]
The protein stability index of the first is higher: 4.01 for the first, 2.01 for the second.

Going from HLEETRKLQDLIKDVLRYGEEQLK [L4E] to HLEFTRKLQDLIKDVLRYGEEQLK [L4F], the protein stability index rises from 1.46 to 3.76.

Going from HLEGTRKLQDLIKDVLRYGEEQLK [L4G] to HLEHTRKLQDLIKDVLRYGEEQLK [L4H], the protein stability index rises from 2.02 to 3.01.

Going from HLEITRKLQDLIKDVLRYGEEQLK [L4I] to HLEKTRKLQDLIKDVLRYGEEQLK [L4K], the protein stability index falls from 2.12 to 1.43.

Compared with HLEMTRKLQDLIKDVLRYGEEQLK [L4M], HLENTRKLQDLIKDVLRYGEEQLK [L4N] is lower in protein stability index: 2.21 for the first, 1.75 for the second.

Compared with HLEPTRKLQDLIKDVLRYGEEQLK [L4P], HLEQTRKLQDLIKDVLRYGEEQLK [L4Q] is higher in protein stability index: 1.58 for the first, 2.58 for the second.

First: HLESTRKLQDLIKDVLRYGEEQLK [L4S]
Second: HLETTRKLQDLIKDVLRYGEEQLK [L4T]
The protein stability index of the first is higher: 2.76 for the first, 1.55 for the second.

Going from HLEVTRKLQDLIKDVLRYGEEQLK [L4V] to HLEWTRKLQDLIKDVLRYGEEQLK [L4W], the protein stability index rises from 3.17 to 3.23.

First: HLEYTRKLQDLIKDVLRYGEEQLK [L4Y]
Second: HLELARKLQDLIKDVLRYGEEQLK [T5A]
The protein stability index of the first is higher: 2.41 for the first, 1.89 for the second.

First: HLELCRKLQDLIKDVLRYGEEQLK [T5C]
Second: HLELDRKLQDLIKDVLRYGEEQLK [T5D]
The protein stability index of the first is higher: 2.55 for the first, 2.53 for the second.

Compared with HLELERKLQDLIKDVLRYGEEQLK [T5E], HLELFRKLQDLIKDVLRYGEEQLK [T5F] is higher in protein stability index: 1.88 for the first, 2.34 for the second.

First: HLELGRKLQDLIKDVLRYGEEQLK [T5G]
Second: HLELHRKLQDLIKDVLRYGEEQLK [T5H]
The protein stability index of the first is lower: 2.48 for the first, 3.29 for the second.

Compared with HLELIRKLQDLIKDVLRYGEEQLK [T5I], HLELKRKLQDLIKDVLRYGEEQLK [T5K] is higher in protein stability index: 2.38 for the first, 5.01 for the second.

Going from HLELLRKLQDLIKDVLRYGEEQLK [T5L] to HLELMRKLQDLIKDVLRYGEEQLK [T5M], the protein stability index falls from 3.42 to 3.28.

Going from HLELNRKLQDLIKDVLRYGEEQLK [T5N] to HLELPRKLQDLIKDVLRYGEEQLK [T5P], the protein stability index falls from 2.14 to 1.94.

Compared with HLELQRKLQDLIKDVLRYGEEQLK [T5Q], HLELSRKLQDLIKDVLRYGEEQLK [T5S] is higher in protein stability index: 3.54 for the first, 3.79 for the second.

Going from HLELVRKLQDLIKDVLRYGEEQLK [T5V] to HLELWRKLQDLIKDVLRYGEEQLK [T5W], the protein stability index falls from 2.63 to 2.05.

For HLELYRKLQDLIKDVLRYGEEQLK [T5Y], the protein stability index was 3.13.
